Reference: PMC12865133, “Macrocyclic Molecular Glues for the 14‐3‐3/ChREBP Interaction: Affinity and Cooperativity in an Inverse Relationship” (Angewandte Chemie (International Ed. in English), 2025)

Columns and labels:
Assay in all cases: fluorescence polarisation; two-dimensional fluorescence anisotropy; 14-3-3β titrated to FITC-labeled F1, F2, F3, F4 or pepD (10 nM) with varying concentrations of ChREBP peptide; fitted to a thermodynamic cooperativity model with KD II fixed at 1.5 µM; n = 2
Details in all cases: both partners purified
macrocycle F1 = molecular target: T1, macrocycle F1 (not fully specified; fluorescein isothiocyanate (FITC) on the side chain of the first lysine; β-alanine after it; phosphoserine; triazole from azido phenylalanine (replacing Nph(+1)) cyclised to the …)
T1 chain: SFSXFKXK

macrocycle F4 = molecular target: T2, macrocycle F4 (not fully specified; fluorescein isothiocyanate (FITC) on the side chain of the first lysine; β-alanine after it; phosphoserine; triazole from azido phenylalanine (replacing Nph(+1)) cyclised to the …)
T2 chain: SFSXFKXK

FITC-labeled pepD = FITC-labeled pepD (FITC label (position not given); phosphoserine (pSer); 4-nitrophenylalanine Nph(+1) and Nph(+4), counting from pSer)
macrocycle F3 = molecular target: T3, macrocycle F3 (not fully specified; fluorescein isothiocyanate (FITC) on the side chain of the first lysine; β-alanine after it; phosphoserine; triazole from azido phenylalanine (replacing Nph(+1)) cyclised to the …)
T3 chain: SFSXFKXK

B1: 14-3-3β (natural protein, UniProt P31946 1-246, looked up)
chain: MTMDKSELVQKAKLAEQAERYDDMAAAMKAVTEQGHELSNEERNLLSVAYKNVVGARRSSWRVISSIEQKTERNEKKQQMGKEYREKIEAELQDICNDVLELLDKYLIPNATQPESKVFYLKMKGDYFRYLSEVASGDNKQTTVSNSQQAYQEAFEISKKEMQPTHPIRLGLALNFSVFYYEILNSPEKACSLAKTAFDEAIAELDTLNEESYKDSTLIMQLLRDNLTLWTSENQGDEGDAGEGEN
notes: 14-3-3 protein, beta isoform; also called 14-3-3 protein
Macrocycle F1
  cooperativity factor α with ChREBP peptide: 339 ± 35
Macrocycle F4
  cooperativity factor α with ChREBP peptide: 42 ± 1
FITC-labeled pepD
  cooperativity factor α with ChREBP peptide: 38 ± 2
Macrocycle F3
  cooperativity factor α with ChREBP peptide: 12 ± 1
